Values quoted from earlier work, collected in publication PMC5764468.

Target: calmodulin (Homo sapiens) (UniProt P0DP23)

Question: For CyaA AC domain AC (from UniProt P0DKX7), which Kd is on record?
Answer: < 0.1 nM
